Test: soluble fraction after stress (log2 fold change); higher = more stays soluble; pooled small domains, quantitative proteomics
Conditions: stress: 75 degC
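Note: 20 min heating vs room temperature control held 20 min.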

Row | Sequence | soluble fraction (log2)
1 | HMEKRRQEIVELVKRESEISFAELKQHFPEVSEVTLRKDLKYLDSTLQIIRIHGGAKSLPAAI | -0.965
2 | HMEKTTTLFDETTNPGIIYIGKAMPTGSAISEAAAVWAIKTIDTTTDTEIKWADGVTTYTKVWNNRASYSY | -0.872
3 | HMEKVDAISQSILDVLKKNNGYLAVTDKSDPDEIYGLFQISKKTFKKAIGSLYRDRLISIEEEGIRLR | -0.496
4 | HMEKVTAPMPGVINSIVKNVGDTVKRGDVVLILEAMKMENEIVAPKEGKIASINVAKGASVNAGDVLFSI | 0.347
5 | HMEKVTPEMIAEYNALAKKYNSNPEVVFKKKEIQRLKYIYSLMSEKQKETAEVFPNIPPPPPT | 0.162
6 | HMEKYNIIVDNEDNFRLDKIIALNMKDLSRTMIQEMINRGLVSVNGKITKASYKTKLNDQIEIMIED | -0.599
7 | HMELAALKILNSPIGKIAIGTSENGLVKLDILTSGQTRAEFSDLPKAHKLALDAADQLAAYF | 0.147
8 | HMELADNFAKLILTARESKGWTQAQLGQRMAETINVIKSAESGKPPADSVIRKFEMILGIELM | -2.06
9 | HMELDFLRLQIITGIHSGRLSNNEILMMYDTYSQKGGNSYVSRIVNDYVDENNIKEEGKRNARK | -1.5
10 | HMELDREALSDGLRRLSQLLAEDDIESRTLFRELAPGLKEQLGDDAVEKLAGHISRYEFEQAGALLATSG | -0.0504
11 | HMELIELTVTEEFEMARLDQFLAGHLTQSRTYIQKLIKAGQITINGNLITRVKVPVHYGDFILINIPDPE | -3.68
12 | HMELKFIGEAVNNPKRPLIAILGGAKVSDKIGVIENLLTKADKILIGGAMMFTFLKAEGKNIGTSLVED | 0.0754
13 | HMELLEVSVIIREADSTGWSAARQGMEQAAADLGAELRFLTLSQSNSAEEQRSLLAREVEGGADAVVLV | -0.57
14 | HMELNEMEAWSLVSKALRNGTYGAVEEFSRLPPTVQEAVGNPDNLRNWATSDYKAIETVIQSNFIKTY | -0.0842
15 | HMELNILELKSKERKISLEDHLYIKSFNFDNETNEYFYRLAFNSSKDLKNFKATINNDKTISIINFEI | -3.67
16 | HMELPVNSIRVPDVVGLSLREAMQAMTDAGVPWQSVQAKGVGFVSRQSPEAGTVTQLRRVRLELKLF | -2.8
17 | HMELSPVDLGERLKIARETANFTQDAAAKAVGIARTTLVSIEKGQRTARLDEIQALSRFYGVSANALLR | -1.16
18 | HMELTDRQKQIIEIVKKQQPISGEKIASILGFARATLRPDFSLLTMSGILQAKPKVGYLINEE | -0.63
19 | HMELVEVGDLTGLTVEQAENVLKNSNISISIDKYDESDKYEKDQIISQNPQNKKVKKGTAIHVVLSNGP | 0.527
20 | HMEMKMGHIISKLRYESGYSQVELAEKIGITKGAVGMYETDKRKPDYDTLIKLADLFNVSTDYLLS | -0.378
21 | HMEMNDFETLRDMYLTGKIWNVGDIVEANGVRGKVIRKGTNYLSFVDEDNKVHKAWLYDIEE | 0.291
22 | HMEMSLGEKLKQARLTKNFSQEYMAEVLQISQKTYSNFENNKTKPDFSQIEEISKVLETSILEFLT | -1.12
23 | HMEMTGAHLRKKIRAKGFTFQQIADAIGESKQNLSQILSTNNIKTGTLERIAAAMGESVSYF | -0.00766
24 | HMENDYTQAQFVQDLDSGVVREVIIIPNREAPTGYARVVFGDVVRELYATDIREVEALAREHGYEPTVED | 0.343
25 | HMENFDNIFDQRLMPSLFIIRNINQAIENNNNNKFLLNSTISMKDKHWIEIHPHHLKLIISGYQT | -0.328
26 | HMENIEVDFGVGDTVSVIGGAWKDTVGVVQAMNPNKQSLTINVELFGRETPVEISFTDVQKM | -0.166
27 | HMENINIRNMGIRAVEAAIISLSPDQRTFTWGATNKKLVTVPYEENPYSALAAFFKTDDGIEIYDAIEKRL | -1.08
28 | HMENNNIAFSKFLEEVDSGRVVQVEIQGNNISGTLSDGSKFKTYSPNYPDLVSKLSEKNVSIIASPV | 0.343

Row | Sequence | soluble fraction (log2)
29 | HMENPLVEVVVPVLNEERILKANIETLHHFLRTQPGFNFRITIADNGSTDKTQAIANDLTNSHAVIRV | -0.151
30 | HMENPMIEQLKQFIEAQGLTQGQLAAKLGVSTATVNQYLQGKYKGDTAALDAKAAQLMARSREK | 0.169
31 | HMENRILIPTAENIGERLDRYISSELDAPRSQVQIWIDSGLVAVSGGLKPKNYRLREGDEIEVTIPDPV | -0.11
32 | HMENRLREVRDEIATRHGILPTVFINDRVLMNIHSKKPKDVSQLWQVDGISDEFIMKYGPEFIAEYKKKAK | -0.119
33 | HMENRREYQKAIDYLSDQIRAGTLTVGSRLPTERAIAEALGISRNSTREALRTMENMGMIESKQGSGHYLT | -0.215
34 | HMENTELIELRKKRNLSQSQLAELLDLTRNQIANYESGRRIPDQETKQIIAGFFEMPAEEIFAG | -0.086
35 | HMENTFNENLRRIRKEKKITQEQLAEFVGVSPQAVSKWEMNSFPDASLLPKIAEKLEVSIDELFGLK | 0.205
36 | HMENTVVMPNLLGKTMTEAKIELKDLSISITLKGSENSSQYAAGQIISQSVDSGTRVAVGSSVEVTIAGS | -0.843
37 | HMENVIYGINGPVVTVRNSRSFSMMEMVFVGNERLVGEVIGITDKITTIQVYEETTGLRPGEPVYGTGSPM | -3.8
38 | HMENVRKTEWVTISNDKSQTRTTVYFESGNQKLDKHPQIQGFEYQRTYVEGGVKYYLFVEKGTKLDE | 0.0189
39 | HMENYGEAITYIHGMIEDSSEKMLAASKALKVNANTLIKFMKDPYSVAAHIRDRIVENLANLEKAVKAI | -0.254
40 | HMENYYMPVVAGQSEQDAKSMLNAMKLSLSIQVQEQESDSVAKGLAIGTSPAAGSQIRKGSSVILYISKGA | -0.844
41 | HMEPALYRLFMAHPELNASAVARRLGIAQSLLAQYISGSKKPSPERERMILTEIHKIGEELATAS | -0.938
42 | HMEPAPPPAAPPADPELQKRIDKLVEYIGKNGPEFEAVIRDKQHDNPDYAFVFGGEGHAYYRYLLWLLPRP | -0.466
43 | HMEPELLTTKQVASVMNIGEERARAILLSRGVQPVSLPWGKERKTLRWSRRAVMTVIDTLHAEAQAKAGV | -2.59
44 | HMEPLPDIPRGTRVSHQTAPADGDMPERRETGWTMTEPIRAQDGLAYVGVSVYGRGVVMLPVNSLSII | -0.384
45 | HMEPSAQEIANKLLGHVKSLGLPITGLSISYNSTSDLATVRGQVQSQADREKIILAVGNVDHVAKVDDQLT | -0.028
46 | HMEPSQEFSLADMVAYDLTGYPKSAALRAAVGASLGIGYGNAKQFVYRLNHYGISKDDFHRAAQEALDGL | -1.1
47 | HMEPTAEQLKAIRQFASVNGRSWKSELRYLWETGAYHRAALGGADPGYLQQVRNQFGPGWLRAFKISK | -1.87
48 | HMEPTPREIVVQQLGYRGLEVLGNAEYQFPKETQIIILKLAELISSGSVTETLEGGKLLALFRGVGINVR | -1.55
49 | HMEPVQPVMYSEFIESVERGEVVEATIQGDKIIATDRSGNRYTVVGSAKDPQLVGQLLERNVAFKFVEE | 0.118
50 | HMEQAMIVILKENPDRRQLEFLTGWLQKQQIGIHISEGAHQTVLGLVGDATRLDIDMLKQMEIVEDVKRVQ | -0.823
51 | HMEQGDTQQEIREKILNLLADGERHMITELKNIRTDQPIDDDKIVGKTLKTLLDEEEVYMDGSYIQLNG | 0.653
52 | HMEQIGSIIKDIRKKNNLTQNEFASILGVTFQAVSKWENDKSIPDITILKDISNKFNVDLNYLISG | -0.405
53 | HMEQISVPIFTNDELVTFARSYSGELGYKIDDMAVLALYNRISNIQRLDQATTLTEVKDIVDEAVAKSE | 0.096
54 | HMEQLESAVASRTLIGQAQGVIMERYGLSAPNAFSVLSRISQDSNTKLAEVAQQIVATRRIPG | -0.093
55 | HMEQLNKNIKFDNFLESLNFINKVSEVAEEENHHPDLKFGWGYADITIFTHAIKGLSEGDFVLAAKIDVI | 0.19
